Measured values published in patent publication US20100260668A1 (published 2010).

B1: DVD495 (bispecific antibody, human IgG1, kappa)
heavy: not shown
light: DIQMTQSSSYLSVSLGGRVTITCKASDHINNWLAWYQQKPGNAPRLLISGATSLETGVPSRFSGSGSGKDYTLSITSLQTEDVATYYCQQYWSIPLTFGAGTKLELKRTVAAPSVFIFPPDIQMTQSPSSLSASVGDRVTITCRASQDVSTAVAWYQQKPGKAPKLLIYSASFLYSGVPSRFSGSGSGTDFTLTISSLQPEDFATYYCQQSYTTPPTFGQGTKVEIKRTVAAPSVFIFPPSDEQLKSGTASVVCLLNNFYPREAKVQWKVDNALQSGNSQESVTEQDSKDSTYSLSSTLTLSKADYEKHKVYACEVTHQGLSSPVTKSFNRGEC
notes: DVD-Ig; N-term; VD AB072 (DLL4), C-term; VD AB070 (VEGF); HC linker long, LC linker long; also called DVD495H; DVD495L
B2: DVD501 (bispecific antibody, human IgG1, kappa)
heavy: not shown
light: DIQMTQSSSYLSVSLGGRVTITCKASDHINNWLAWYQQKPGNAPRLLISGATSLETGVPSRFSGSGSGKDYTLSITSLQTEDVATYYCQQYWSIPLTFGAGTKLELKRTVAAPDIQMTQSPSSLSASVGDRVTITCRASQDVSTAVAWYQQKPGKAPKLLIYSASFLYSGVPSRFSGSGSGTDFTLTISSLQPEDFATYYCQQSYTTPPTFGQGTKVEIKRTVAAPSVFIFPPSDEQLKSGTASVVCLLNNFYPREAKVQWKVDNALQSGNSQESVTEQDSKDSTYSLSSTLTLSKADYEKHKVYACEVTHQGLSSPVTKSFNRGEC
notes: DVD-Ig; N-term; VD AB072 (DLL4), C-term; VD AB070 (VEGF); HC linker long, LC linker short; also called DVD501H; DVD501L
B3: DVD507 (bispecific antibody, human IgG1, kappa, L234A L235A)
heavy: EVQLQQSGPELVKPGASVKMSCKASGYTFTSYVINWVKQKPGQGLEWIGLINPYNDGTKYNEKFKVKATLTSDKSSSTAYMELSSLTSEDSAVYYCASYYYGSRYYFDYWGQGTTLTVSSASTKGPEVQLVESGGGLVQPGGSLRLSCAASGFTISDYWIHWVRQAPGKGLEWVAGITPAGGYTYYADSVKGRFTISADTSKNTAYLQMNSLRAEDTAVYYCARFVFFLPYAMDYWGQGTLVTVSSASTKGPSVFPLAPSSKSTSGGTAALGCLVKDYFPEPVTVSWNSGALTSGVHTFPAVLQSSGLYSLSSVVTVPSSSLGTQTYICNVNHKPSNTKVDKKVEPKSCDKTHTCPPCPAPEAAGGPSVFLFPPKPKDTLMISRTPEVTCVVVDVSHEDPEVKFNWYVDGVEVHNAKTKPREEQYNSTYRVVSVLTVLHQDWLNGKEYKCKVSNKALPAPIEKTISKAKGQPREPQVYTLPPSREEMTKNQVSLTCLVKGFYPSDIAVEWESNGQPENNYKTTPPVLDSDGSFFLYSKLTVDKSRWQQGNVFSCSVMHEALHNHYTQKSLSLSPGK
light: B1 light
notes: DVD-Ig; N-term; VD AB072 (DLL4), C-term; VD AB070 (VEGF); HC linker short, LC linker long; also called DVD507H; DVD507L
B4: DVD466 (bispecific antibody, human IgG1, kappa)
heavy: not shown
light: DIQMTQSPSSLSASVGDRVTITCRASQDVSTAVAWYQQKPGKAPKLLIYSASFLYSGVPSRFSGSGSGTDFTLTISSLQPEDFATYYCQQSYTTPPTFGQGTKVEIKRTVAAPDIQMTQSPSSLSASVGDRVTITCRASQDVSTAVAWYQQKPGKAPKLLIYSASFLYSGVPSRFSGSGSGTDFTLTISSLQPEDFATTYYCQQSYTGTVTFGQGTKVEIKRTVAAPSVFIFPPSDEQLKSGTASVVCLLNNFYPREAKVQWKVDNALQSGNSQESVTEQDSKDSTYSLSSTLTLSKADYEKHKVYACEVTHQGLSSPVTKSFNRGEC
notes: DVD-Ig; N-term; VD AB070 (VEGF), C-term; VD AB015 (DLL4); HC linker short, LC linker short; also called DVD466H; DVD466L
B5: DVD472 (bispecific antibody, human IgG1, kappa)
heavy: not shown
light: DIQMTQSPSSLSASVGDRVTITCRASQDVSTAVAWYQQKPGKAPKLLIYSASFLYSGVPSRFSGSGSGTDFTLTISSLQPEDFATYYCQQSYTTPPTFGQGTKVEIKRTVAAPSVFIFPPDIQMTQSPSSLSASVGDRVTITCRASQDVSTAVAWYQQKPGKAPKLLIYSASFLYSGVPSRFSGSGSGTDFTLTISSLQPEDFATTYYCQQSYTGTVTFGQGTKVEIKRTVAAPSVFIFPPSDEQLKSGTASVVCLLNNFYPREAKVQWKVDNALQSGNSQESVTEQDSKDSTYSLSSTLTLSKADYEKHKVYACEVTHQGLSSPVTKSFNRGEC
notes: DVD-Ig; N-term; VD AB070 (VEGF), C-term; VD AB015 (DLL4); HC linker long, LC linker long; also called DVD472H; DVD472L
B6: DVD478 (bispecific antibody, human IgG1, kappa)
heavy: not shown
light: B4 light
notes: DVD-Ig; N-term; VD AB070 (VEGF), C-term; VD AB015 (DLL4); HC linker long, LC linker short; also called DVD478H; DVD478L
B7: DVD484 (bispecific antibody, human IgG1, kappa)
heavy: not shown
light: B5 light
notes: DVD-Ig; N-term; VD AB070 (VEGF), C-term; VD AB015 (DLL4); HC linker short, LC linker long; also called DVD484H; DVD484L
B8: DVD444 (bispecific antibody, human IgG1, kappa)
heavy: not shown
light: DIQMTQSPSSLSASVGDRVTITCRASQDVSTAVAWYQQKPGKAPKLLIYSASFLYSGVPSRFSGSGSGTDFTLTISSLQPEDFATYYCQQSYTTPPTFGQGTKVEIKRTVAAPDIVMTQSPDSLAVSLGERATISCRASESVDNYGISFMKWFQQKPGQPPKLLIYAASNQGSGVPDRFSGSGSGTDFTLTISSLQAEDVAVYYCQQSKEVPWTFGGGTKVEIKRTVAAPSVFIFPPSDEQLKSGTASVVCLLNNFYPREAKVQWKVDNALQSGNSQESVTEQDSKDSTYSLSSTLTLSKADYEKHKVYACEVTHQGLSSPVTKSFNRGEC
notes: DVD-Ig; N-term; VD AB070 (VEGF), C-term; VD AB069 (DLL4); HC linker short, LC linker short; also called DVD444H; DVD444L
B9: DVD450 (bispecific antibody, human IgG1, kappa)
heavy: not shown
light: DIQMTQSPSSLSASVGDRVTITCRASQDVSTAVAWYQQKPGKAPKLLIYSASFLYSGVPSRFSGSGSGTDFTLTISSLQPEDFATYYCQQSYTTPPTFGQGTKVEIKRTVAAPSVFIFPPDIVMTQSPDSLAVSLGERATISCRASESVDNYGISFMKWFQQKPGQPPKLLIYAASNQGSGVPDRFSGSGSGTDFTLTISSLQAEDVAVYYCQQSKEVPWTFGGGTKVEIKRTVAAPSVFIFPPSDEQLKSGTASVVCLLNNFYPREAKVQWKVDNALQSGNSQESVTEQDSKDSTYSLSSTLTLSKADYEKHKVYACEVTHQGLSSPVTKSFNRGEC
notes: DVD-Ig; N-term; VD AB070 (VEGF), C-term; VD AB069 (DLL4); HC linker long, LC linker long; also called DVD450H; DVD450L
B10: DVD456 (bispecific antibody, human IgG1, kappa)
heavy: not shown
light: B8 light
notes: DVD-Ig; N-term; VD AB070 (VEGF), C-term; VD AB069 (DLL4); HC linker long, LC linker short; also called DVD456H; DVD456L
B11: DVD462 (bispecific antibody, human IgG1, kappa)
heavy: not shown
light: B9 light
notes: DVD-Ig; N-term; VD AB070 (VEGF), C-term; VD AB069 (DLL4); HC linker short, LC linker long; also called DVD462H; DVD462L

target: T1, VEGF (UniProt P15692-4 27-191); experiment: SPR (Biacore), DVD-Ig captured, VEGF in solution
T1 construct: Bought reagent; also called vascular endothelial growth factor
T1 sequence (P15692 other isoform, or with tags, fused parts or gaps limits assumed): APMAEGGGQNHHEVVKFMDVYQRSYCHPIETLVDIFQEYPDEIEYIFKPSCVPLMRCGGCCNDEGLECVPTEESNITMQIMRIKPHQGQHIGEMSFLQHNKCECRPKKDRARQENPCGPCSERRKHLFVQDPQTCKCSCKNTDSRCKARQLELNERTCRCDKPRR

Which results are given for B1?
Kd: 0.645 nM; koff: 0.000204 s⁻¹; kon: 316000 M⁻¹ s⁻¹

With B2 as the binder, how does the Kd read?
The Kd was 0.821 nM.

And the koff?
Its koff is 0.000175 s⁻¹.

And the kon?
Its kon is 213000 M⁻¹ s⁻¹.

For B3, which Kd is on record?
The Kd was 0.847 nM.

What about the koff of the same binder?
The koff was 0.000201 s⁻¹.

And the kon?
Its kon is 238000 M⁻¹ s⁻¹.

How did the Kd turn out when B4 was run?
Its Kd is 0.71 nM.

And the koff?
The koff was 0.000393 s⁻¹.

And the kon?
The kon was 553000 M⁻¹ s⁻¹.

Which results are given for B5?
Kd: 0.201 nM; koff: 0.00024 s⁻¹; kon: 1.2e+06 M⁻¹ s⁻¹

For B6, which Kd is on record?
The Kd was 0.354 nM.

And the koff?
Its koff is 0.000195 s⁻¹.

What about the kon of the same binder?
Its kon is 552000 M⁻¹ s⁻¹.

What does the source list for B7?
Kd: 0.255 nM; koff: 0.0041 s⁻¹; kon: 1.61e+07 M⁻¹ s⁻¹

For B8, which Kd is on record?
Its Kd is 0.162 nM.

And the koff?
Its koff is 0.0038 s⁻¹.

And the kon?
Its kon is 2.35e+07 M⁻¹ s⁻¹.

For B9, which Kd is on record?
Its Kd is 0.255 nM.

And the koff?
Its koff is 0.00431 s⁻¹.

And the kon?
Its kon is 1.69e+07 M⁻¹ s⁻¹.

What does the source list for B10?
Kd: 0.281 nM; koff: 0.00448 s⁻¹; kon: 1.6e+07 M⁻¹ s⁻¹

How did the Kd turn out when B11 was run?
The Kd was 0.864 nM.

And the koff?
The koff was 0.000858 s⁻¹.

And the kon?
The kon was 993000 M⁻¹ s⁻¹.
